According to doi:10.1101/2024.09.10.612331:

Key:
[1] = target: ALX4 homeodomain V241R (V28R) (mouse cDNA (identical to human in this region, as the paper says)); assay: native gel or EMSA
[2] = target: ALX4 homeodomain R216A (R3A) (mouse cDNA (identical to human in this region, as the paper says)); assay: native gel or EMSA
[3] = target: ALX4 homeodomain R215A (R2A) (mouse cDNA (identical to human in this region, as the paper says)); assay: native gel or EMSA
[4] = target: ALX4 homeodomain (aa 209-274) (mouse cDNA (identical to human in this region, as the paper says)); assay: crystal structure
[5] = target: ALX4 homeodomain (aa 209-274) (mouse cDNA (identical to human in this region, as the paper says)); assay: native gel or EMSA
ALX4 Q225E = ALX4 Q225E (mouse cDNA (human protein sequence …, UniProt O35137 158-291, Q213E)); assay: ITC
Chain of ALX4 Q225E (mouse cDNA (O35137 158-291 Q213E): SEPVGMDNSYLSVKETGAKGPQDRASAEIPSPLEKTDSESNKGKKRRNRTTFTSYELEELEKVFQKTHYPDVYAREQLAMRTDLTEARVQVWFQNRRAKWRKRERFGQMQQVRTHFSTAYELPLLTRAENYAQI

ALX4 R216A = ALX4 R216A (mouse cDNA (human protein sequence …, UniProt O35137 158-291, R204A)); assay: ITC
Chain of ALX4 R216A (mouse cDNA (O35137 158-291 R204A): as the sequence (O35137 158-291 Q213E) above, with R47A, E56Q counted along it

ALX4 K211E = ALX4 K211E (mouse cDNA (human protein sequence …, UniProt O35137 158-291, K199E)); assay: ITC
Chain of ALX4 K211E (mouse cDNA (O35137 158-291 K199E): as the sequence (O35137 158-291 Q213E) above, with K42E, E56Q counted along it

ALX4 R215A;R216A = ALX4 R215A;R216A (mouse cDNA (human protein sequence …, UniProt O35137 158-291, R203A;R204A)); assay: ITC
Chain of ALX4 R215A;R216A (mouse cDNA (O35137 158-291 R203A/R204A): as the sequence (O35137 158-291 Q213E) above, with R46A, R47A, E56Q counted along it

ALX4 R218Q = ALX4 R218Q (mouse cDNA (human protein sequence …, UniProt O35137 158-291, R206Q)); assay: ITC
Chain of ALX4 R218Q (mouse cDNA (O35137 158-291 R206Q): as the sequence (O35137 158-291 Q213E) above, with R49Q, E56Q counted along it

ALX4 R215A = ALX4 R215A (mouse cDNA (human protein sequence …, UniProt O35137 158-291, R203A)); assay: ITC
Chain of ALX4 R215A (mouse cDNA (O35137 158-291 R203A): as the sequence (O35137 158-291 Q213E) above, with R46A, E56Q counted along it

ALX4 R216G = ALX4 R216G (mouse cDNA (human protein sequence …, UniProt O35137 158-291, R204G)); assay: ITC
Chain of ALX4 R216G (mouse cDNA (O35137 158-291 R204G): as the sequence (O35137 158-291 Q213E) above, with R47G, E56Q counted along it

[6] = target: ALX4 WT (ITC, mutant-series EMSA) (mouse cDNA (human protein sequence …, UniProt O35137 158-291)); assay: ITC
Chain of ALX4 WT (ITC, mutant-series EMSA) (mouse cDNA (O35137 158-291, stated change not applied): as the sequence (O35137 158-291 Q213E) above, with E56Q counted along it

ALX4 R272P = ALX4 R272P (mouse cDNA (human protein sequence …, UniProt O35137 158-291, R260P)); assay: ITC
Chain of ALX4 R272P (mouse cDNA (O35137 158-291 R260P): as the sequence (O35137 158-291 Q213E) above, with E56Q, R103P counted along it

ALX4 V241R = ALX4 V241R (mouse cDNA (human protein sequence …, UniProt O35137 158-291, V229R)); assay: ITC
Chain of ALX4 V241R (mouse cDNA (O35137 158-291 V229R): as the sequence (O35137 158-291 Q213E) above, with E56Q, V72R counted along it

Molecule: ALX4 homeodomain V241R (V28R) (domain or fragment)
- Tau (cooperativity factor on the P3 DNA site) [1]: 0.327

Molecule: ALX4 homeodomain R216A (R3A) (domain or fragment)
- fold reduction of cooperativity (Tau on the P3 site) against wild type [2]: 10 fold

Molecule: ALX4 homeodomain R215A (R2A) (domain or fragment)
- fold reduction of cooperativity (Tau on the P3 site) against wild type [3]: 5 fold

Molecule: ALX4 homeodomain (aa 209-274) (domain or fragment)
- stoichiometry N [4]: 2
- Tau (cooperativity factor on the P3 DNA site) [5]: 110
- Tau (cooperativity factor on the P4 DNA site) [5]: 1.5

B1: 14-mer monomer site ITC duplex (dsDNA)
DNA 1: CGCTAATTAGCTCG
DNA 2: CGAGCTAATTAGCG
- Kd (ALX4 Q225E): 52.5 ± 12.3 nM
- Kd (ALX4 R216A): 15.2 ± 4.63 nM
- Kd (ALX4 K211E): 21.5 ± 7.68 nM
- Kd (ALX4 R215A;R216A): 214 ± 39.8 nM
- binding result (ALX4 R218Q): no binding
- Kd (ALX4 R215A): 30.4 ± 18.5 nM
- Kd (ALX4 R216G): 41.8 ± 8.81 nM
- Kd [6]: 15.5 ± 0.98 nM
- Kd (ALX4 R272P): 43.6 ± 12.1 nM
- Kd (ALX4 V241R): 7.45 ± 5.22 nM
